# Assay results as given in the nanobody polyreactivity screen of Harvey et al. (2022).
# Experiment: yeast display, Sf9 membrane polyspecificity reagent, FACS + sequencing; frameworks hold sequencing errors
# Procedure, shortened: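 Synthetic nanobody libraries on Saccharomyces cerevisiae BJ5465 were galactose-induced for 36–48 hours, stained 1 hour at 4 °C with 10% biotinylated, detergent-solubilized Sf9 membrane reagent and enriched on streptavidin microbeads. FACS then separated cells into low and high (top ~1%) gates by anti-HA (expression) and streptavidin (reagent binding) fluorescence. Genes were colony-PCR amplified, MiSeq 2 × 250 sequenced and CDR-length filtered. A clone's polyreactivity label is that of its gate of origin.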
row,Sequence,polyreactivity (PSR sort gate)
1,QVQLVESGGGLVQAGGSLRLSCAASGRTFPVNAMGWYRQAPGKERELVATISWSGGSTYYADSVKGRFTISRDYAKNTVYLQMNSLKPEDTAVYYCAALGRHYRYDYWGQGTLVTVSS,low polyreactivity
2,QVQLVESGGGLVQAGGSLRLSCAASGSTFNQNAMGWYRQAPGKERELVARITSGGSTYYADSVKGRFTISRDNAKNTVYLQMNSLKPEDTAVYYCAARANPYVLKYYYWGQGTQVTVSS,high polyreactivity
3,QVQLVESGGGLVQAGGSLRLSCAASGRIFTDYAMAWYRQAPGKEREFVAAINKSGGSTYYADSVKGRFTISRDNAKNTVYLEMNSLKPEDTAVYYCAKSLGQTDWEYDSWGQGTQVTVSS,low polyreactivity
4,QVQLVESGGGLVQAGGSLRLSCAASGSTFPPYAMGWYRQAPGKERELVAAITASGGRTYYADSVKGRFTLSRDNAKNTVYLQMNSLKPEDTAVYYCAALRGSTYDYWGQGTQVTVSS,high polyreactivity
5,QVQLVESGGGLVQAGGSLRLSCAASGVTFIYYTMGWYRQAPGKERDLVATISRRGDSPYYADSVKGRFTISRDNAKNTVYLQMNSLKPEDTAVYYCNAVTRAAYWWTARSTDYDYWGQGTLVTVSS,high polyreactivity
6,QVQLVESGGGLVQAGGSLRLSCAASGRIFQRYAMGWYRQAPGKERELVAVITKRGGNTYYADSVKGRFTISRDNAKNTVYLQMNSLKPEDTAVYYCATRSGRSTGDYWGQGTQVTVSS,high polyreactivity
7,QDQLVESGGGLVQAGGSLRLSCAASGFTIGYNVMGWYRQAPGKERELVATISWNGARTYYADSVKGRFTISRDNAKNTVYLQMNSLKPEETAVYYCAARRYYRGEYDYWGQGTQVTVSS,low polyreactivity
8,QVQLVESGGGLVEAGGSLRLSCAASGSTFRYYAMGWYRQAPGKERELFAAITWSGGSTNYADSVKGRFTISRDNAKNTFYLQMNSLKPEDTAVYYCNARYLYRHSRYARYDSWGQGTQVTVSS,high polyreactivity
9,QVQLVESGGGLVQAGGSLRLSCAASGFTFERYAMGWYRPAPGKDRELVAAITGSGGSTYYADSVKGRFTIARDNATNTVYLQMNSLKPEDTAFYYCARDSSLFRLRDYWGQGTQVTVSS,low polyreactivity
10,QVQLVESGGGLVQAGGSLRLSCAASGYIFGSYVMGWYRQAPGKERELVAAITRIGASTYFADSVKGRFTISRDNAKNTVYLQMNSLKPDDTAVFYCATDQGGYYENDYWGQGTQVTVSS,low polyreactivity
11,QVQLVESGGGLVQAGGSLRISCAAYGSTIVTNAMGWYRQAPVKERELVAASTSGAGTYYADSVKGRFTISRDNAKNTVYLQMNCLKTEDTAVYYCAARRYYSSGRYRFGYWGQGSQVTVSS,high polyreactivity
12,QVQLVESGGGLVQAGGSHRLSCAASGGILETNAMGWYRQAPGKERELVAAIDFSAGSTYYADSVKGRFTISRDNAKNTVYLQMNSLKPEDTAVYYCAAESQGPKDDYLWGWHIYYYWGQGSQVTVSS,low polyreactivity
13,QGQLVESGGGLVQAGGSLRLSCAASVRTSVINAMGWYRQAPGKERELVAAITKRGGSTYYADSVKGRFTISRDIAKNTVYLQMNSLKPEDTEVYYCAKYPIYIQYDSWGQGTQVTVSS,high polyreactivity
14,QVQLVESGGGLVQAGGSLRLSCAASGSTQYGYAMGWYRQAPRKERELVAAINTGGSTNYADSVKGRFSISRDNAKNSVYLQMNSLKPEDTAVYYCAADYEWDAFSYDYWGQGTQVTVSS,low polyreactivity
15,QVQLVESGGGLVQAGGSLRLSCAASGSNFRDNGMGWYRQAPGKERELVAAINSGDSTYYADSVKGRFTISRDNAKNTVYLQMNSLKPEDTAVYYCNADDRRALSQRQYDWYDYWGQGTQVTVSS,low polyreactivity
16,QVQLVESGGGLVQAGGSLRLSCAASGSTFSYNAMGWYRQAPGKERELVAAIRTSGGRTYYADSVKGRFTISRDNAKNTVYLQMNSLKPEDTAVYYCAKRWVYRYGYEYWGQGTQVTVSS,high polyreactivity
17,QVQLVESGGGLVQARGSLRLSCAASGSTFPYYAMGWYRQAPGKARELVAAITSSTGRTYYADSVKGRFTISRDNAKNTVYLQMNSLKPEDTAVYYSNAEVYSDPYNDHDYWGQGTQVTVSS,low polyreactivity
18,QVQLVESGGGLVQAGGSLRLSCAASGITFLKNAMGWYRQAPGKERELVAAISSSGGSTYYADSVKGRFTISRDNAKNTVYLQMNSLKPEDTAVYYCAAYPTSTVVDDFDYWGQGTQVTVSS,high polyreactivity
19,QVQLVESGGGLVQAGGSLRLSCAASGFIFRAYTMGWYRQAPGKERELVAAITSGSSTNYADSVKGRFTISRDNAKNTVYLQMNSLKPEDTAVYYCNTDWVWLIIEYDYWGQGTQVTVSS,low polyreactivity
20,QDQLVQSRGGLVQAGGSLRISSAASGGTYFGYAMGWKRQAPGKERELVAAIRWSDGRTYYADSVKGRFTISRDNAKYTVYLQMNSLNPEDTAVYYCNADDARLFDYWGQGTQVTVSS,low polyreactivity
21,QVQLVESGGGLVQAGGSLRLSCAASGFTFAWNAMGWYRQAPGKERELVATIDVSGGSTYYADSVKGRFTISRDNAKNTVYLQMNSLKPEDTAVYYCAAVELPEGGYDYWGQGTQVTVSS,low polyreactivity
22,QVQLVESGGGLVQAGGSLRLSCAASGSTFGGNAMGWYRQAPGKERELVAAISRSGTTTYYADSVKGRFTISRDNAKNTVYLQMNSLKPEDTAVYYCAADYVRSQYDYWGQGTQVTVSS,high polyreactivity

row,Sequence,polyreactivity (PSR sort gate)
1,QGQLVESGGGLVQAGGSLRLSCAASGGIFTDYAMGWYRQAPGKERELVAAITRRGGRTYYADSVKGRFTISRDNAKNPVYLQMNSLKPEDTAVYYCAATRSGEYDYWGQGTQVTVSS,high polyreactivity
2,QVQLVESGGGLVQAGGSLRLSCAASGSIFYRNAMGWYRQAPGKERELVAAITSSGGSTYYADSVKGRFTISRDNAKYTVYFQMNSLKPEDTAVYYCNSVVTKFAKCRFLYYYWGQGTQVTVSS,high polyreactivity
3,QVQLVESGGGLVEAGGSLRLSCAASGRIFWGNAMGWYRPAPGKERELVAAITRGGSTNYADSVKGRFTISRDNAKNTVYLQMKSLKPEDTAVYYCAARTRSRGNSWTYDYWGQGTQVTVSS,high polyreactivity
4,QFQLVESGGGLVQAGGSLRLSCAASGLTFSRYAMGWYIQAPGKERELVAAITCSGSSTYYSHSVKGRFTISRDNAKNNVYLQMNSLKPEDTAVYYCAARYGYSRGTYYRSDYWGQGTQVTVSS,high polyreactivity
5,QVQLVESGGGLVQAGGSLRLSCAASGRIFSGYVMGWYRQAPGKERELVAAISRSGGSTYYADSVKGRFTISRDNAKNTVYLQMNSLKPEDTAVYYCNAYYRYFRSIYDSWGQGTQVTVSS,high polyreactivity
6,QVQLVESGGGLVQAGRSLRLSCAASGSTFKYNAMGWYRQAPGKERELVASISRSGGSTYYADSVKGRFTISRDNAKNTVYLQMNSLKPEDTAGYYCNVRRFVHYEYWGQGSQVTVSS,high polyreactivity
7,QVQLVESGGGLVQAGGSLRLSCAASGFIFTKNAMGWYRQAPGKDRVLVAAITSSGGNTYYADSVKRRFTIARDNAKNTVYLQMNSLKPEDTAVYYCAASRFLRMYWGQGTQVTVSS,high polyreactivity
8,QVQLVESGGGLVQAGVSLRLSCPAGGSTFYKYVMGWYRQAPGKEREVVAAISVNGGDTYYADSVKGRFTISRDNAKNTVSVQMNSLNPEDTAVYYCAAERGVDLSARYGDNDNWGQGTQVTVTS,low polyreactivity
9,QVQLVESGGGLVQAGGSLRLSCAASGSTFASYAMGSYRQATGKETELVASITRRGGSTDYADSVKGRFTISRDNAKTTVYLQMNSLKPEDTSVYYAVETAWSYNSNYWFDYWGQGTQVTVSS,high polyreactivity
10,QVQLVESGGGLVQAGGSLRLSCAASGRISVFNAMGWYRQAPGKERELVATITDGGSTYYADSVKGRFTISRDNAKNSVYLQMNSLKPEDTAVYYCAKKQVTTDVSSETFVLEMDYLGQGTQVTVSS,low polyreactivity
11,QVQLVESGGGLVQAGGSLRLSCAASGLTFRHYAMGWYRQAPGKERELVAAITSSGGSTYYADSVKGRFTISRDNAKNTVYIQMNSLKPEDTAVYYCNARWSYFHAVSGVASDYWGQGTQVTVSS,high polyreactivity
12,QVQLVESGGGLVQAGGRLRLSCAASGFIIARNAMGWYRQAPGKERELVAASSASGGRTYYADSVKGRFTISRDNAKNTVYLQMNSLKPEDTAVYYCAARRDGRSGSFNYWGQGTQVTVSS,high polyreactivity
13,QVQLLESGGGLVQAGGSLRLSCAASVSIFPKNTMGWYIQAPGKERELVAAISKSGGSTYYADSVKGRFTISRDNAKNTVYLQMNSLKPEDTAVYYCAAALGLRSTSWGRRGGGGDYWGQGTQVTGSS,high polyreactivity
14,QVQLVESGGGLVQAGGSLRLSCAASGRIFVSNDMGWYRQAPGKERELVAAISWSDDSTHYADSVKGRFTISRDNAKNTVYLQMNSLKPEDTAVYYCNKQRYYSTWRYDYWGQGTQVTVSS,low polyreactivity
15,QDQLVESGGGLVQAGGSLRLSCAASGFTFGENSMGWYRQAPGKERELVAANRYSGGSTYYADSVKGRFTISRDNAKNTVYLQMNSLKPEDTAVYYCNADTYALGPAVIPGDEYWGQGTQVTVSS,low polyreactivity
16,QVQLVQSGGGLVQAGGSLSLSCAASGSTFSTYAMGWYRQAPGKERELVATISKSGGSTYYSDSVKGRFTISRDNAKNTVYLQMNSLKPEDTAVYYCNARYQSRYFIYDYWGQGTQVTVSS,high polyreactivity
17,QVQLVESGGGLVQAGGSLRLSCAASGSTFGSYAMGWYRQAPGKERELVAGISWSGGRTYYADSVKGRFTISRDNAKNTVYLQMNSLKPEDTAVFYCALDTGYYYARYNFWGQGTKVTVSS,low polyreactivity
18,QVQLVESGGGLVQAGVSLRLSCSASGLTFRPNAIGWYRQAPGKERELVAAITWSGGRTYYADSVKGRFTISRDNATNTVYFQMNSLKPEDTAVYYCAAVPLRNRWPNSWPALDYWGQVTQVTVSS,high polyreactivity
19,QVQHVESGGGLVQAGGSLRLSCAASGRTFHWYAMGWYRQAPGKERELVAAIRYSAGSTYYADSVKGRFTISRDNAKNTVYLQMNSLKPEDTAVYYCAARPPYTDSSPGERTYDYWGQGTQVTVSS,low polyreactivity
20,QVQLVESGGGLVQAGGSLRLSCAASGSTFRRYAMGGYRQAPGKERELVAAISRSGGTTYYADSVKGRFTISRDNAKNTVYLQMNSLKPEDTAVYYCNARYPVVRYDYWGQGTQVTVSS,high polyreactivity
21,QVQLVESGGGLVQAGGSLRLSCAASGSTFYYYAMGWYRQAPGKERELVAAITYSGGSTTYADSVKGRFTISRDNAKNTVYLQMNSLKPEDTAVYYCAAYVYRYHRVAYEYWGQGTQVTVSS,high polyreactivity
